B1: library; numbered along this chain (parent)
chain: MEVVDPQQLGMFTEGELMSVGMDTFIHRIDSTEVIYQPRRKRAKLIGKYLMGDLLGEGSYGKVKEVLDSETLCRRAVKILKKKKLRRIPNGEANVKKEIQLLRRLRHKNVIQLVDVLYNEEKQKMYMVMEYCVCGMQEMLDSVPEKRFPVCQAHGYFCQLIDGLEYLHSQGIVHKDIKPGNLLLTTGGTLKISDLGVAEALHPFAADDTCRTSQGSPAFQPPEIANGLDTFSGFKVDIWSAGVTLYNITTGLYPFEGDNIYKLFENIGKGSYAIPGDCGPPLSDLLKGMLEYEPAKRFSIRQIRQHSWFRKKHPPAEAPVPIPPSPDTKDRWRSMTVVPYLEDLHGADEDEDLFDIEDDIIYTQDFTVPGQVPEEEASHNGQRRGLPKAVCMNGTEAAQLSTKSRAEGRAPNPARKACSASSKIRRLSACKQQ

Variants of: B1
Assay: STK11 functional score (HeLa growth suppression), rescaled enrichment; synonymous median = 1, nonsense median = 0 (normalised score)
Details: with HeLa; variant type: missense
How it was run: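 In HeLa, Bxb1 integrated POPCode codon-randomised libraries of codon-optimised STK11 at an AAVS1 landing pad; three regions were each transfected three times. Integrants, marked as BFP-negative and mCherry-positive, were FACS-sorted 4–5 days after electroporation and expanded for about two weeks before tiled gDNA amplicons were sequenced on NextSeq (~2 million reads per tile). Each functional score is a post/pre-selection log ratio corrected to wild type, rescaled to the synonymous and nonsense medians, and merged across codons and replicate transfections, with error estimated by bootstrapping.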

STK11 functional score of substitutions, site by site:
L344: Y 0.904; V 1.42; K 1.59; F 0.831; S 1.43; A 1.51; W 1.54; H 1.14; C 1.12; D 1.46; R 1.46; I 1.13; E 1.28; G 0.8; T 1.56
D343: G 1.41; W 1.55; H 0.726; V 1.21; T 1.53; E 1.45; R 1.11; M 1.57; Y 1.29; I 1.57; C 1.44; F 1.32; S 1.35; A 1.47; L 0.93; N 1.02; Q 0.992; P 1.33
D350: T 1.47; N 1.07; Y 1.45; F 0.0925; Q 1.49; L 1.6; H 1.27; P 1.48; W 1.6; G 1.29; C 1.51; V 1.19; A 0.867; S 0.53; R 1.61; E 1.25; I 1.25; M 1.65
E342: L 1.26; M 1.46; W 1.19; I 1.42; D 0.774; C 1.21; V 1.46; F 1.14; T 1.58; N 1.4; R 1.54; A 1.11; G 1; Q 1.23; P 1.53; S 1.39; Y 1.38; K 1.61
G346: R 1.56; L 1.38; M 1.58; Q 1.61; F 1.29; C 1.22; A 1.57; E 1.35; K 1.61; T 1.62; I 1.18; N 1.6; Y 1.57; D 0.435; V 0.838; P 1.61; S 1.48; H 1.6
V338: R 0.93; Q 1.54; P 1.54; I 1.47; W 0.683; S 1.59; T 1.6; D 1.39; A 1.56; G 1.18; L 1.39; C 0.965
H345: M 1.54; R 1.58; Y 1.12; I 1.44; F 1.41; P 1.29; G 1.49; C 1.2; L 1.2; W 1.56; A 1.56; T 1.57; V 1.22; S 1.18; D 1.27
E349: W 1.14; I 1.05; N 1.48; F 0.989; L 1.47; D 1.35; V 1.16; Q 1.16; Y 0.952; R 1.37; P 1.41; C 1.1; A 1.5; S 1.38; G 0.983; T 1.51; M 1.33
D352: L 1.62; A 0.984; S 1.57; R 1.61; W 0.86; Y 0.953; M 1.2; N 1.09; V 1.12; E 1.15; H 1.27; T 1.57; C 1.34; P 1.6; Q 0.828; K 1.55
P339: I 1.52; W 1.6; S 1.42; M 1.62; L 0.979; E 0.55; Y 1.21; G 0.73; V 0.729; C 1.59; N 0.366; D 1.55; R 1.16; A 1; Q 1.52
R333: G 1.47; K 1.61; F 0.85; L 1.32; V 1.15; S 1.55; A 1.28; I 1.49; H 1.05; Y 1.55; D 1.62; P 1.64
E351: M 0.992; Y 1.23; Q 1.28; F 1.19; T 1.52; I 1.27; P 1.55; D 0.951; R 1.26; W 1.48; S 1.4; L 1.43; V 1.36; H 0.374; G 1.33; C 1.06
Y340: T 1.58; A 1.56; I 0.334; F 1.04; N 1.03; S 1.3; C 1.63; K 1.6; L 1.59; D 0.511; V 1.6
V337: D 1.2; P 1.58; R 0.662; L 0.924; G 1.13; T 1.61; N 1.54; W 0.54; Y 0.9; I 1.48; A 1.24; K 1.53; F 0.545; S 0.723; C 1.15
D348: S 1.59; Y 0.868; T 1.57; I 1.41; H 1.18; L 1.3; V 0.78; G 1.26; P 1.59; R 1.2; N 0.723; W 1.58; Q 1.54; A 1.54; M 0.896
T336: E 1.61; S 1; K 1.54; N 0.774; R 1.54; I 1.35; H 1.59; A 1.52; Y 1.17; G 1.15; V 1.49; C 1.27; P 1.18; L 1.39; D 0.148; M 0.732; W 1.64
L353: D 1.61; C 1.17; H 1.4; A 1.56; G 1.52; F 1.27
W332: Q 1.55; S 1.21; C 0.361; E 1.61; V 1.59; G 1.55; L 1.55; M 1.42; P 1.63; R 1.55; A 1.56
A347: R 1.54; F 1.37; Y 1.34; W 1.59; P 1.21; S 1.42; H 0.00438; V 1.23; M 1.54; I 1.52; T 1.33; L 1.46; G 1.12
S334: A 0.943; C 0.325; H 1.05; F 1.1; Y 1.55; V 1.31; E 1.53; T 1.18; G 1.35; W 0.649; D 1.45; I 0.935; P 1.43; R 0.671; Q 1.53; M 1.05; L 1.24; N 1.58
R331: W 1.49; Y 1.35; V 1.13
L341: R 1.21; I 1.56; A 1.51; E 1.55; S 0.93; D 1.6; M 1.63; W 1.25; P 1.54; N 1.52; C 1.38; H 0.315; Q 1.59; T 1.29; G 1.46; F 0.562; V 1.33
M335: R 1.46; F 1.35; E 1.33; Q 1.01; G 1.55; D 0.605; S 1.53; W 0.367; C 1.36; V 1.42; Y 1.32; P 1.5; L 1.03; A 1.51; I 1.18; T 1.46; H -0.482; K 1.03
